Laboratory results as given in patent US6500929B1.

Assays:
[1] = target: C1 (a first component of complement) of human serum (human) (UniProt P09871)
[2] = target: C1 (a first component of complement) of human serum (human) (UniProt P09871); remark: listed apart in the source

complement-mediated lysis of swine vascular endothelial cells (SEC) by 20% and 40% human serum [1]: 20%
complement-mediated lysis of CHO cells (antibody against CHO cells, then 40% human serum) [2]: 20%
Substance: FLAG-C1-INH-GPI (C1-INH-GPI with a FLAG epitope tag added to the C terminal of the signal peptide)
